Experimental data: article PMC11880807

T1: EXOG-ΔC68 (human, UniProt Q9Y2C4 59-300)
T1 sequence: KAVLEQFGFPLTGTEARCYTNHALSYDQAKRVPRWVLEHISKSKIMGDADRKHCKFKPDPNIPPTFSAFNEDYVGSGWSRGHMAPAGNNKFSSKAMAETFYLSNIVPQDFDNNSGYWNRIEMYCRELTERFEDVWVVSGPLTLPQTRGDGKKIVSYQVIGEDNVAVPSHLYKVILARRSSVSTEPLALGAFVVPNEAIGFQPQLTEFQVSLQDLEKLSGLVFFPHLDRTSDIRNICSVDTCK

T2: EXOG (EXOG-ΔN58) (human, UniProt Q9Y2C4 59-368)
T2 sequence: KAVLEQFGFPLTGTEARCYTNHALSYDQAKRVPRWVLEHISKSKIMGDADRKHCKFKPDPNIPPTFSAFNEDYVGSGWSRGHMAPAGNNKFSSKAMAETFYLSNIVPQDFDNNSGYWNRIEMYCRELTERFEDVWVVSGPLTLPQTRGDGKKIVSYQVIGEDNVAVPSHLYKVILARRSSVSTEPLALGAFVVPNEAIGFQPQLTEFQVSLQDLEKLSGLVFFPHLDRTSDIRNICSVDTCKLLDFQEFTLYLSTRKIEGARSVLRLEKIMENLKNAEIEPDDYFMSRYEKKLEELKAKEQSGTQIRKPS


What was measured:
Test in all cases: MST
EXOG-ΔC68 [1] = biological target: T1, EXOG-ΔC68
EXOG (EXOG-ΔN58) = biological target: T2, EXOG (EXOG-ΔN58)
EXOG-ΔC68 [2] = biological target: T1, EXOG-ΔC68; remark: listed apart in the source

Row | Binder | Kd (EXOG-ΔC68 [1]) | Kd (EXOG (EXOG-ΔN58)) | binding result (EXOG-ΔC68 [2])
1 | AGUUCGUUAUCGUCGC (ssRNA) [ssRNA 16-mer O11] | 155 ± 31.9 nM | – | –
2 | AGTTCGTTATCGTCGC (ssDNA) [ssDNA 16-mer O10] | – | 25.1 ± 4.5 nM | no binding
